Experimental data from the supplement of paper PMC10567573.

B1: TOR1AIP2 (parent)
chain: SPGHSSAGQEGEDTLRRRLLAPEA
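Also: lentivirally expressed fusions sorted by FACS into six bins by GFP to DsRed ratio, PSI derived from sequencing read proportions per bin multiplied by bin number.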

Variants of: B1
Assay: protein stability index of a GFP-peptide fusion (GPS, HEK-293T) (PSI 1-6); higher = more stable
Details: c terminus: a fixed tail appended
With SPGHSSAGQEREDTLRRRLLAPEA [G11R] the protein stability index was 4.64.
Variant SPGHSSAGQEEEDTLRRRLLAPEA [G11E] has a protein stability index of 4.6.
With SPGHSSAGQEVEDTLRRRLLAPEA [G11V] the protein stability index was 4.04.
SPGHSSAGQEYEDTLRRRLLAPEA [G11Y] gave a protein stability index of 3.39.
SPGHSSAGQENEDTLRRRLLAPEA [G11N] gave a protein stability index of 4.46.
With SPGHSSAGQETEDTLRRRLLAPEA [G11T] the protein stability index was 4.62.
With SPGHSSAGQESEDTLRRRLLAPEA [G11S] the protein stability index was 4.48.
In the case of SPGHSSAGQEHEDTLRRRLLAPEA [G11H], the protein stability index is reported as 4.07.
With SPGHSSAGQEIEDTLRRRLLAPEA [G11I] the protein stability index was 3.82.
For SPGHSSAGQEFEDTLRRRLLAPEA [G11F], the protein stability index was 3.49.
Work on SPGHSSAGQEKEDTLRRRLLAPEA [G11K] yielded a protein stability index of 4.5.
For SPGHSSAGQEQEDTLRRRLLAPEA [G11Q], the protein stability index was 4.38.
In the case of SPGHSSAGQEPEDTLRRRLLAPEA [G11P], the protein stability index is reported as 4.05.
Variant SPGHSSAGQELEDTLRRRLLAPEA [G11L] has a protein stability index of 4.13.
For SPGHSSAGQEAEDTLRRRLLAPEA [G11A], the protein stability index was 4.
Variant SPGHSSAGQEDEDTLRRRLLAPEA [G11D] has a protein stability index of 4.64.
For SPGHSSAGQEMEDTLRRRLLAPEA [G11M], the protein stability index was 4.15.
Work on SPGHSSAGQECEDTLRRRLLAPEA [G11C] yielded a protein stability index of 3.88.
With SPGHSSAGQEWEDTLRRRLLAPEA [G11W] the protein stability index was 3.6.
SPGHSSAGQEGEDTLRRALLAPEA [R18A] gave a protein stability index of 4.8.
With SPGHSSAGQEGEDTLRRELLAPEA [R18E] the protein stability index was 5.45.
With SPGHSSAGQEGEDTLRRCLLAPEA [R18C] the protein stability index was 4.4.
Work on SPGHSSAGQEGEDTLRRFLLAPEA [R18F] yielded a protein stability index of 2.84.
For SPGHSSAGQEGEDTLRRDLLAPEA [R18D], the protein stability index was 4.89.
SPGHSSAGQCGEDTLRRRLLAPEA [E10C] showed a protein stability index of 2.67.
SPGHSSAGQTGEDTLRRRLLAPEA [E10T] gave a protein stability index of 3.81.
Work on SPGHSSAGQNGEDTLRRRLLAPEA [E10N] yielded a protein stability index of 3.72.
Work on SPGHSSAGQMGEDTLRRRLLAPEA [E10M] yielded a protein stability index of 3.58.
Work on SPGHSSAGQPGEDTLRRRLLAPEA [E10P] yielded a protein stability index of 3.94.
With SPGHSSAGQAGEDTLRRRLLAPEA [E10A] the protein stability index was 3.75.
Work on SPGHSSAGQSGEDTLRRRLLAPEA [E10S] yielded a protein stability index of 4.06.
SPGHSSAGQIGEDTLRRRLLAPEA [E10I] gave a protein stability index of 3.63.
For SPGHSSAGQYGEDTLRRRLLAPEA [E10Y], the protein stability index was 3.51.
With SPGHSSAGQVGEDTLRRRLLAPEA [E10V] the protein stability index was 4.04.
In the case of SPGHSSAGQWGEDTLRRRLLAPEA [E10W], the protein stability index is reported as 3.42.
SPGHSSAGQQGEDTLRRRLLAPEA [E10Q] gave a protein stability index of 3.88.
Work on SPGHSSAGQLGEDTLRRRLLAPEA [E10L] yielded a protein stability index of 3.31.
In the case of SPGHSSAGQRGEDTLRRRLLAPEA [E10R], the protein stability index is reported as 3.62.
In the case of SPGHSSAGQDGEDTLRRRLLAPEA [E10D], the protein stability index is reported as 3.94.
With SPGHSSAGQFGEDTLRRRLLAPEA [E10F] the protein stability index was 3.68.
SPGHSSAGQKGEDTLRRRLLAPEA [E10K] gave a protein stability index of 3.27.
SPGHSSAGQGGEDTLRRRLLAPEA [E10G] gave a protein stability index of 3.91.
Variant SPGHSSAGQHGEDTLRRRLLAPEA [E10H] has a protein stability index of 3.61.
SPGHSSAGQEGEDTNRRRLLAPEA [L15N] showed a protein stability index of 5.49.
Variant SPGHSSAGQEGEDTKRRRLLAPEA [L15K] has a protein stability index of 4.96.
With SPGHSSAGQEGEDTGRRRLLAPEA [L15G] the protein stability index was 5.44.
SPGHSSAGQEGEDTVRRRLLAPEA [L15V] gave a protein stability index of 4.93.
Variant SPGHSSAGQEGEDTERRRLLAPEA [L15E] has a protein stability index of 5.35.
With SPGHSSAGQEGEDTPRRRLLAPEA [L15P] the protein stability index was 5.23.
Variant SPGHSSAGQEGEDTDRRRLLAPEA [L15D] has a protein stability index of 5.7.
In the case of SPGHSSAGQEGEDTCRRRLLAPEA [L15C], the protein stability index is reported as 3.98.
For SPGHSSAGQEGEDTYRRRLLAPEA [L15Y], the protein stability index was 4.89.
In the case of SPGHSSAGQEGEDTRRRRLLAPEA [L15R], the protein stability index is reported as 5.01.
With SPGHSSAGQEGEDTWRRRLLAPEA [L15W] the protein stability index was 3.92.
SPGHSSAGQEGEDTQRRRLLAPEA [L15Q] gave a protein stability index of 4.98.
With SPGHSSAGQEGEDTSRRRLLAPEA [L15S] the protein stability index was 5.16.
In the case of SPGHSSAGQEGEDTARRRLLAPEA [L15A], the protein stability index is reported as 5.47.
In the case of SPGHSSAGQEGEDTTRRRLLAPEA [L15T], the protein stability index is reported as 5.31.
In the case of SPGHSSAGQEGEDTFRRRLLAPEA [L15F], the protein stability index is reported as 4.3.
With SPGHSSAGQEGEDTHRRRLLAPEA [L15H] the protein stability index was 5.13.
With SPGHSSAGQEGEDTMRRRLLAPEA [L15M] the protein stability index was 4.79.
For SPGHSSAGQEGEDTIRRRLLAPEA [L15I], the protein stability index was 4.53.
SPGHSSAGQEGKDTLRRRLLAPEA [E12K] showed a protein stability index of 3.98.
For SPGHSSAGQEGQDTLRRRLLAPEA [E12Q], the protein stability index was 3.38.
With SPGHSSAGQEGSDTLRRRLLAPEA [E12S] the protein stability index was 3.3.
Variant SPGHSSAGQEGGDTLRRRLLAPEA [E12G] has a protein stability index of 3.73.
Variant SPGHSSAGQEGWDTLRRRLLAPEA [E12W] has a protein stability index of 3.19.
For SPGHSSAGQEGHDTLRRRLLAPEA [E12H], the protein stability index was 3.73.
SPGHSSAGQEGADTLRRRLLAPEA [E12A] gave a protein stability index of 3.48.
SPGHSSAGQEGRDTLRRRLLAPEA [E12R] gave a protein stability index of 3.84.
For SPGHSSAGQEGLDTLRRRLLAPEA [E12L], the protein stability index was 3.33.
In the case of SPGHSSAGQEGCDTLRRRLLAPEA [E12C], the protein stability index is reported as 4.
Work on SPGHSSAGQEGDDTLRRRLLAPEA [E12D] yielded a protein stability index of 3.97.
Work on SPGHSSAGQEGTDTLRRRLLAPEA [E12T] yielded a protein stability index of 3.6.
SPGHSSAGQEGFDTLRRRLLAPEA [E12F] gave a protein stability index of 3.1.
SPGHSSAGQEGVDTLRRRLLAPEA [E12V] showed a protein stability index of 3.22.
With SPGHSSAGQEGIDTLRRRLLAPEA [E12I] the protein stability index was 3.73.
SPGHSSAGQEGMDTLRRRLLAPEA [E12M] gave a protein stability index of 3.53.
SPGHSSAGQEGNDTLRRRLLAPEA [E12N] showed a protein stability index of 3.81.
SPGHSSAGQEGPDTLRRRLLAPEA [E12P] gave a protein stability index of 3.59.
SPGHSSAGQEGYDTLRRRLLAPEA [E12Y] gave a protein stability index of 3.22.
SPGHSSAMQEGEDTLRRRLLAPEA [G8M] gave a protein stability index of 4.05.
With SPGHSSALQEGEDTLRRRLLAPEA [G8L] the protein stability index was 4.21.
With SPGHSSATQEGEDTLRRRLLAPEA [G8T] the protein stability index was 4.61.
For SPGHSSARQEGEDTLRRRLLAPEA [G8R], the protein stability index was 4.
Work on SPGHSSAYQEGEDTLRRRLLAPEA [G8Y] yielded a protein stability index of 3.79.
Work on SPGHSSAKQEGEDTLRRRLLAPEA [G8K] yielded a protein stability index of 4.19.
For SPGHSSAPQEGEDTLRRRLLAPEA [G8P], the protein stability index was 4.53.
In the case of SPGHSSAWQEGEDTLRRRLLAPEA [G8W], the protein stability index is reported as 4.19.
With SPGHSSASQEGEDTLRRRLLAPEA [G8S] the protein stability index was 4.42.
In the case of SPGHSSANQEGEDTLRRRLLAPEA [G8N], the protein stability index is reported as 4.05.
Variant SPGHSSAVQEGEDTLRRRLLAPEA [G8V] has a protein stability index of 4.43.
Variant SPGHSSAQQEGEDTLRRRLLAPEA [G8Q] has a protein stability index of 4.33.
In the case of SPGHSSAGQEGEVTLRRRLLAPEA [D13V], the protein stability index is reported as 4.15.
